T1: hnRNP H RRM domain (RRM1/2) (UniProt P31943 P31943:11-188)
T1 sequence: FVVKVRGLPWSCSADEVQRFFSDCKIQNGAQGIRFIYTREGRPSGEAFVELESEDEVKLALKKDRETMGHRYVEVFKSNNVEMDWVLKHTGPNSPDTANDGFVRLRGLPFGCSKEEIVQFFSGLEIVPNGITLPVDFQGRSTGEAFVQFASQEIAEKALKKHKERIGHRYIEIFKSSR


Columns and labels:
[1] = molecular target: T1, hnRNP H RRM domain (RRM1/2); test: 1H-15N HSQC NMR titration at 1:0.5, described as potent binding; 20 mM potassium phosphate, 70 mM KCl, pH 7.0, 25 C; conditions: tags: His6 cleaved by 3C protease; pET-28a(+), E. coli BL21(DE3); 15N-labelled; G4
Procedure: (§1) Titration experiments were performed by recording a series of 2D ¹⁵N-HSQC spectra on uniformly ¹⁵N-labeled RRM domain (˜0.1 mM) in the presence of different amounts of DNA/RNA or compounds at 25° C. Protein samples and stock solutions of DNA/RNA were all prepared in 20 mM potassium phosphate buffer and 70 mM KCl, pH 7.0, 10% D₂O. All compounds were dissolved in isotope-labeled d₆-DMSO (Sigma-Aldrich) at about 50 mM concentration, working as stock solutions. To avoid chemical shift changes of protein samples resulted from d₆-DMSO addition, 10 μL d₆-DMSO was added into 500 μL of 0.1 mM protein solution in the NMR buffer (20 mM potassium phosphate buffer and 70 mM KCl, pH 7.0, 10% D₂O) and then the 2D HSQC was recorded as a reference.

[2] = molecular target: T1, hnRNP H RRM domain (RRM1/2); test: 1H-15N HSQC NMR titration at 1:0.5; 20 mM potassium phosphate, 70 mM KCl, pH 7.0, 25 C; conditions: tags: His6 cleaved by 3C protease; pET-28a(+), E. coli BL21(DE3); 15N-labelled; G4
Procedure: as §1

Row | Binder | binding result [1] | binding result [2]
1 | GGGGCCGGGGCCGGGGCCGGGGCC (structured_DNA) [DNA (G4C2)4 G4] | binds | 
2 | GGGGCCGGGGCC (ssRNA) [RNA (G4C2)2 G4] |  | binds

From US20220112180, “NOVEL COMPOUNDS AS POTENTIAL THERAPEUTIC AGENTS TARGETING VARIOUS NEURODEGENERATIVE DISEASES” (The Hong Kong University of Science and Technology, published 2022)
